Source: US20230256017A1, “METHODS OF MAKING CHIMERIC ANTIGEN RECEPTOR-EXPRESSING CELLS” (Novartis AG, priority 2020, published 2023)

System: T cells
Test: T cell expansion with cytokines after TCR stimulation (cell surface staining)
Assay type: cell-based
Conditions: αCD3/αCD28 beads plus indicated cytokine
Method: Previously frozen T cells were thawed and contacted with αCD3/αCD28 dynal beads (cell to bead ratio of 1 to 3) in the presence of indicated cytokines at day 0. From day 3, twice more T cell growth media (RPMI1640, 10% FBS, 2 mM L-glutamin, 100 µM non-essential amino acids, 1 mM sodium pyruvate, 10 mM Hepes, 55 µM β-mercaptoethanol, 10% FBS, and 100 U/ml of penicillin-streptomycin) was added to the plate with indicated cytokines (without cytokine, rhIL2 (50 IU/ml, Novartis), IL6 (10 ng/ml, R&D systems), IL7 (10 ng/ml, Peprotech), IL15 (10 ng/ml, Peprotech), and IL21 (10 ng/ml, Peprotech)) at day 3, 5, 6, 9, 12, 15, and 18.
Cells were harvested at indicated time points and then stained with live/dead dye (eFluro780, eBioscience), CD3 (BioLegend, clone#: OKT3), CD4 (BioLegend, clone#: OKT4), CD8 (BD Bioscience, clone#: RPA-T8), CD45RO (BioLegend, clone#: UCHL1), CCR7 (BioLegend, clone#: G043H7), CD27 (BD Horizon, clone#: L128), CD127 (BioLegend, clone#: A019D5), CD57 (BioLegend, clone#: HCD57), CD126 (BioLegend, clon#: UV4), and CD130 (R&D Systems, clone#: 28126) antibodies. The cells were acquired by FACS Fortessa and then FlowJo program was used for data analysis.

B1: IL7: cytokine present during activation of T cells with αCD3αCD28 beads (protein, UniProt P13232 26-177, looked up)
Interleukin-7: DCDIEGKDGKQYESVLMVSIDQLLDSMKEIGSNCLNNEFNFFKRHICDANKEGMFLFRAARKLRQFLKMNSTGDFDLHLLKVSEGTTILLNCTGQVKGRKPAALGEAQPTKSLEENKSLKEQKKLNDLCFLKRLLQEIKTCWNKILMGTKEH
- T cell expansion: enhanced T cell expansion
